Measured values published in patent US20200199241A1 (Chugai, published 2020).

molecular target: T1, human FcRn (soluble human FcRn complexed with β2-microglobulin) (human, UniProt P61769 21-119, limits assumed); assay: SPR, pH 7.0;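 also: antibodies captured on a Protein L sensor chip with human FcRn injected as analyte, KD calculated from fitted association and dissociation rate constants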
T1 construct: also called hFcRn

Kd [nM]	Binder
30	IgG1-F21 (antibody, copies: 2 + 2) heavy: QVQLQESGPGLVKPSETLSLTCAVSGHSISHDHAWSWVRQPPGEGLEWIGFISYSGITNYNPSLQGRVTISRDNSKNTLYLQMNSLRAEDTAVYYCARSLARTTAMDYWGEGTLVTVSSASTKGPSVFPLAPSSKSTSGGTAALGCLVKDYFPEPVTVSWNSGALTSGVHTFPAVLQSSGLYSLSSVVTVPSSSLGTQTYICNVNHKPSNTKVDKKVEPKSCDKTHTCPPCPAPELLGGPSVFLFPPKPKDTLYISRTPEVTCVVVDVSHEDPEVKFNWYVDGVEVHNAKTKPREEQYNSTYRVVSVLTPLHQDWLNGKEYKCKVSNKALPAPIEKTISKAKGQPREPQVYTLPPSRDELTKNQVSLTCLVKGFYPSDIAVEWESNGQPENNYKTTPPVLDSDGSFFLYSKLTVDKSRWQQGNVFSCSVMHEALHYHYTQKSLSLSP light: not shown
990	IgG1-F77 (antibody, EU numbering; copies: 2 + 2) heavy: QVQLQESGPGLVKPSETLSLTCAVSGHSISHDHAWSWVRQPPGEGLEWIGFISYSGITNYNPSLQGRVTISRDNSKNTLYLQMNSLRAEDTAVYYCARSLARTTAMDYWGEGTLVTVSSASTKGPSVFPLAPSSKSTSGGTAALGCLVKDYFPEPVTVSWNSGALTSGVHTFPAVLQSSGLYSLSSVVTVPSSSLGTQTYICNVNHKPSNTKVDKKVEPKSCDKTHTCPPCPAPELLGGPSVFLFPPKPKDTLMISREPEVTCVVVDVSHEDPEVKFNWYVDGVEVHNAKTKPREEQYNSTYRVVSVLTVLHQDWLNGKEYKCKVSNKALPAPIEKTISKAKGQPREPQVYTLPPSRDELTKNQVSLTCLVKGFYPSDIAVEWESNGQPENNYKTTPPVLDSDGSFFLYSKLTVDKSRWQQGNVFSCSVLHEALHYHYTQKSLSLSP light: not shown
1600	IgG1-F81 (antibody, EU numbering; copies: 2 + 2) heavy: QVQLQESGPGLVKPSETLSLTCAVSGHSISHDHAWSWVRQPPGEGLEWIGFISYSGITNYNPSLQGRVTISRDNSKNTLYLQMNSLRAEDTAVYYCARSLARTTAMDYWGEGTLVTVSSASTKGPSVFPLAPSSKSTSGGTAALGCLVKDYFPEPVTVSWNSGALTSGVHTFPAVLQSSGLYSLSSVVTVPSSSLGTQTYICNVNHKPSNTKVDKKVEPKSCDKTHTCPPCPAPELLGGPSVFLFPPKPKDTLYISREPEVTCVVVDVSHEDPEVKFNWYVDGVEVHNAKTKPREEQYNSTYRVVSVLTVLHQDWLNGKEYKCKVSNKALPAPIEKTISKAKGQPREPQVYTLPPSRDELTKNQVSLTCLVKGFYPSDIAVEWESNGQPENNYKTTPPVLDSDGSFFLYSKLTVDKSRWQQGNVFSCSVMHEALHAHYTQKSLSLSP light: not shown
1400	IgG1-F75 (antibody, EU numbering; copies: 2 + 2) heavy: QVQLQESGPGLVKPSETLSLTCAVSGHSISHDHAWSWVRQPPGEGLEWIGFISYSGITNYNPSLQGRVTISRDNSKNTLYLQMNSLRAEDTAVYYCARSLARTTAMDYWGEGTLVTVSSASTKGPSVFPLAPSSKSTSGGTAALGCLVKDYFPEPVTVSWNSGALTSGVHTFPAVLQSSGLYSLSSVVTVPSSSLGTQTYICNVNHKPSNTKVDKKVEPKSCDKTHTCPPCPAPELLGGPSVFLFPPKPKDTLYISRTPEVTCVVVDVSHEDPEVKFNWYVDGVEVHNAKTKPREEQYNSTYRVVSVLTVLHQDWLNGKEYKCKVSNKALPAPIEKTISKAKGQPREPQVYTLPPSRDELTKNQVSLTCLVKGFYPSDIAVEWESNGQPENNYKTTPPVLDSDGSFFLYSKLTVDKSRWQQGNVFSCSVLHEALHAHYTQKSLSLSP light: not shown
1000	IgG1-F42 (antibody, EU numbering; copies: 2 + 2) heavy: QVQLQESGPGLVKPSETLSLTCAVSGHSISHDHAWSWVRQPPGEGLEWIGFISYSGITNYNPSLQGRVTISRDNSKNTLYLQMNSLRAEDTAVYYCARSLARTTAMDYWGEGTLVTVSSASTKGPSVFPLAPSSKSTSGGTAALGCLVKDYFPEPVTVSWNSGALTSGVHTFPAVLQSSGLYSLSSVVTVPSSSLGTQTYICNVNHKPSNTKVDKKVEPKSCDKTHTCPPCPAPELLGGPSVFLFPPKPKDTLYITREPEVTCVVVDVSHEDPEVKFNWYVDGVEVHNAKTKPREEQYNSTYRVVSVLTVLHQDWLNGKEYKCKVSNKALPAPIEKTISKAKGQPREPQVYTLPPSRDELTKNQVSLTCLVKGFYPSDIAVEWESNGQPENNYKTTPPVLDSDGSFFLYSKLTVDKSRWQQGNVFSCSVMHEALHAHYTQKSLSLSP light: not shown
170	IgG1-F73 (antibody, EU numbering; copies: 2 + 2) heavy: QVQLQESGPGLVKPSETLSLTCAVSGHSISHDHAWSWVRQPPGEGLEWIGFISYSGITNYNPSLQGRVTISRDNSKNTLYLQMNSLRAEDTAVYYCARSLARTTAMDYWGEGTLVTVSSASTKGPSVFPLAPSSKSTSGGTAALGCLVKDYFPEPVTVSWNSGALTSGVHTFPAVLQSSGLYSLSSVVTVPSSSLGTQTYICNVNHKPSNTKVDKKVEPKSCDKTHTCPPCPAPELLGGPSVFLFPPKPKDTLYISRTPEVTCVVVDVSHEDPEVKFNWYVDGVEVHNAKTKPREEQYNSTYRVVSVLTVLHQDWLNGKEYKCKVSNKALPAPIEKTISKAKGQPREPQVYTLPPSRDELTKNQVSLTCLVKGFYPSDIAVEWESNGQPENNYKTTPPVLDSDGSFFLYSKLTVDKSRWQQGNVFSCSVLHEALHWHYTQKSLSLSP light: not shown
460	IgG1-F74 (antibody, EU numbering; copies: 2 + 2) heavy: QVQLQESGPGLVKPSETLSLTCAVSGHSISHDHAWSWVRQPPGEGLEWIGFISYSGITNYNPSLQGRVTISRDNSKNTLYLQMNSLRAEDTAVYYCARSLARTTAMDYWGEGTLVTVSSASTKGPSVFPLAPSSKSTSGGTAALGCLVKDYFPEPVTVSWNSGALTSGVHTFPAVLQSSGLYSLSSVVTVPSSSLGTQTYICNVNHKPSNTKVDKKVEPKSCDKTHTCPPCPAPELLGGPSVFLFPPKPKDTLYISRTPEVTCVVVDVSHEDPEVKFNWYVDGVEVHNAKTKPREEQYNSTYRVVSVLTVLHQDWLNGKEYKCKVSNKALPAPIEKTISKAKGQPREPQVYTLPPSRDELTKNQVSLTCLVKGFYPSDIAVEWESNGQPENNYKTTPPVLDSDGSFFLYSKLTVDKSRWQQGNVFSCSVLHEALHYHYTQKSLSLSP light: not shown
2700	IgG1-F80 (antibody, EU numbering; copies: 2 + 2) heavy: QVQLQESGPGLVKPSETLSLTCAVSGHSISHDHAWSWVRQPPGEGLEWIGFISYSGITNYNPSLQGRVTISRDNSKNTLYLQMNSLRAEDTAVYYCARSLARTTAMDYWGEGTLVTVSSASTKGPSVFPLAPSSKSTSGGTAALGCLVKDYFPEPVTVSWNSGALTSGVHTFPAVLQSSGLYSLSSVVTVPSSSLGTQTYICNVNHKPSNTKVDKKVEPKSCDKTHTCPPCPAPELLGGPSVFLFPPKPKDTLYISRQPEVTCVVVDVSHEDPEVKFNWYVDGVEVHNAKTKPREEQYNSTYRVVSVLTVLHQDWLNGKEYKCKVSNKALPAPIEKTISKAKGQPREPQVYTLPPSRDELTKNQVSLTCLVKGFYPSDIAVEWESNGQPENNYKTTPPVLDSDGSFFLYSKLTVDKSRWQQGNVFSCSVMHEALHAHYTQKSLSLSP light: not shown
1000	IgG1-F76 (antibody, EU numbering; copies: 2 + 2) heavy: QVQLQESGPGLVKPSETLSLTCAVSGHSISHDHAWSWVRQPPGEGLEWIGFISYSGITNYNPSLQGRVTISRDNSKNTLYLQMNSLRAEDTAVYYCARSLARTTAMDYWGEGTLVTVSSASTKGPSVFPLAPSSKSTSGGTAALGCLVKDYFPEPVTVSWNSGALTSGVHTFPAVLQSSGLYSLSSVVTVPSSSLGTQTYICNVNHKPSNTKVDKKVEPKSCDKTHTCPPCPAPELLGGPSVFLFPPKPKDTLYITREPEVTCVVVDVSHEDPEVKFNWYVDGVEVHNAKTKPREEQYNSTYRVVSVLTVLHQDWLNGKEYKCKVSNKALPAPIEKTISKAKGQPREPQVYTLPPSRDELTKNQVSLTCLVKGFYPSDIAVEWESNGQPENNYKTTPPVLDSDGSFFLYSKLTVDKSRWQQGNVFSCSVLHEALHAHYTQKSLSLSP light: not shown
300	IgG1-F39 (antibody, EU numbering; copies: 2 + 2) heavy: QVQLQESGPGLVKPSETLSLTCAVSGHSISHDHAWSWVRQPPGEGLEWIGFISYSGITNYNPSLQGRVTISRDNSKNTLYLQMNSLRAEDTAVYYCARSLARTTAMDYWGEGTLVTVSSASTKGPSVFPLAPSSKSTSGGTAALGCLVKDYFPEPVTVSWNSGALTSGVHTFPAVLQSSGLYSLSSVVTVPSSSLGTQTYICNVNHKPSNTKVDKKVEPKSCDKTHTCPPCPAPELLGGPSVFLFPPKPKDTLYITRTPEVTCVVVDVSHEDPEVKFNWYVDGVEVHNAKTKPREEQYNSTYRVVSVLTVLHQDWLNGKEYKCKVSNKALPAPIEKTISKAKGQPREPQVYTLPPSRDELTKNQVSLTCLVKGFYPSDIAVEWESNGQPENNYKTTPPVLDSDGSFFLYSKLTVDKSRWQQGNVFSCSVMHEALHYHYTQKSLSLSP light: not shown
780	IgG1-F78 (antibody, EU numbering; copies: 2 + 2) heavy: QVQLQESGPGLVKPSETLSLTCAVSGHSISHDHAWSWVRQPPGEGLEWIGFISYSGITNYNPSLQGRVTISRDNSKNTLYLQMNSLRAEDTAVYYCARSLARTTAMDYWGEGTLVTVSSASTKGPSVFPLAPSSKSTSGGTAALGCLVKDYFPEPVTVSWNSGALTSGVHTFPAVLQSSGLYSLSSVVTVPSSSLGTQTYICNVNHKPSNTKVDKKVEPKSCDKTHTCPPCPAPELLGGPSVFLFPPKPKDTLMITRTPEVTCVVVDVSHEDPEVKFNWYVDGVEVHNAKTKPREEQYNSTYRVVSVLTVLHQDWLNGKEYKCKVSNKALPAPIEKTISKAKGQPREPQVYTLPPSRDELTKNQVSLTCLVKGFYPSDIAVEWESNGQPENNYKTTPPVLDSDGSFFLYSKLTVDKSRWQQGNVFSCSVLHEALHWHYTQKSLSLSP light: not shown
100	IgG1-F38 (antibody, EU numbering; copies: 2 + 2) heavy: QVQLQESGPGLVKPSETLSLTCAVSGHSISHDHAWSWVRQPPGEGLEWIGFISYSGITNYNPSLQGRVTISRDNSKNTLYLQMNSLRAEDTAVYYCARSLARTTAMDYWGEGTLVTVSSASTKGPSVFPLAPSSKSTSGGTAALGCLVKDYFPEPVTVSWNSGALTSGVHTFPAVLQSSGLYSLSSVVTVPSSSLGTQTYICNVNHKPSNTKVDKKVEPKSCDKTHTCPPCPAPELLGGPSVFLFPPKPKDTLYITRTPEVTCVVVDVSHEDPEVKFNWYVDGVEVHNAKTKPREEQYNSTYRVVSVLTVLHQDWLNGKEYKCKVSNKALPAPIEKTISKAKGQPREPQVYTLPPSRDELTKNQVSLTCLVKGFYPSDIAVEWESNGQPENNYKTTPPVLDSDGSFFLYSKLTVDKSRWQQGNVFSCSVMHEALHWHYTQKSLSLSP light: not shown
200	IgG1-F72 (antibody, EU numbering; copies: 2 + 2) heavy: QVQLQESGPGLVKPSETLSLTCAVSGHSISHDHAWSWVRQPPGEGLEWIGFISYSGITNYNPSLQGRVTISRDNSKNTLYLQMNSLRAEDTAVYYCARSLARTTAMDYWGEGTLVTVSSASTKGPSVFPLAPSSKSTSGGTAALGCLVKDYFPEPVTVSWNSGALTSGVHTFPAVLQSSGLYSLSSVVTVPSSSLGTQTYICNVNHKPSNTKVDKKVEPKSCDKTHTCPPCPAPELLGGPSVFLFPPKPKDTLYITREPEVTCVVVDVSHEDPEVKFNWYVDGVEVHNAKTKPREEQYNSTYRVVSVLTVLHQDWLNGKEYKCKVSNKALPAPIEKTISKAKGQPREPQVYTLPPSRDELTKNQVSLTCLVKGFYPSDIAVEWESNGQPENNYKTTPPVLDSDGSFFLYSKLTVDKSRWQQGNVFSCSVLHEALHYHYTQKSLSLSP light: not shown
